Assay results reported in US20180127480A1 (Stanford University, published 2018).
Substitutions are numbered along the chain they refer to. Numbers in names are those of the source.

B1: N3612 F14C coupled to Alexa Fluor 647 (designed binder)
chain: WQPPLLFNKTKSVEFTCGNDTVVIPCFVTNMEAQNTTEVYVKWKFKGRDIYTFDGQANKSTVPTDFSSAKIEVSQLLKGDASLKMDKSDAVSHTGNYTCEVTELTREGETIIELKYRVVSHHHHHHHH
modifications: Alexa Fluor 647 maleimide on the cysteine at position 14 (F14C, mature CD47 numbering)
B2: N3612 C15 coupled to Alexa Fluor 647 (designed binder)
chain: B1 chain with C17F, G18C
modifications: Alexa Fluor 647 (maleimide chemistry) on the cysteine at position 15 (mature CD47 numbering)
notes: The production of this form is not described separately
B3: biotinylated high affinity CD47 variant N3612 C15G (designed binder)
chain: WQPPLLFNKTKSVEFTFGNDTVVIPCFVTNMEAQNTTEVYVKWKFKGRDIYTFDGQANKSTVPTDFSSAKIEVSQLLKGDASLKMDKSDAVSHTGNYTCEVTELTREGETIIELKYRVVSGLNDIFEAQKIEWHE
modifications: biotin on the biotin acceptor peptide tag (BirA ligase)
notes: An 8x histidine tag is probably also present (Ni-NTA purification)

Molecular target: T1, SIRPα a1d1 expressed on yeast (human, UniProt P78324 31-149, limits assumed)
T1 construct: domain: domain 1; also called SIRPα a1d1-expressing yeast
Assay: flow cytometry titration on yeast expressing SIRPα a1d1
From the text: FIG. 6B Graph showing binding of different CD47 species to SIRPα a1d1-expressing yeast in titration experiments. […] FIG. 6C Graph showing binding to SIRPα a2d1-expressing yeast in titration experiments (CD47 species are the same as in FIG. 6B).
High affinity CD47 variants were modified to produce diagnostic agents. […] In the original high affinity CD47 variants isolated, the cysteine at position 15 (C15) had been changed to a G (C15G variants). To enable coupling of high affinity CD47 variants to a fluorescent moiety, position 15 was reverted to a Cysteine (C15) or the Phenylalanine (F) at position 14 was changed to a Cysteine (F14C). Binding of such reagents to SIRPα was tested. […] As shown in these figures, the high affinity CD47 reagents can detect SIRPα expression on cells, both engineered and non-engineered, much better than the wildtype molecule. Indeed, as show in FIG. 6D, these reagents can perform as well as anti-SIRPα antibody in such assays.

T1 sequence (P78324 31-149 limits assumed): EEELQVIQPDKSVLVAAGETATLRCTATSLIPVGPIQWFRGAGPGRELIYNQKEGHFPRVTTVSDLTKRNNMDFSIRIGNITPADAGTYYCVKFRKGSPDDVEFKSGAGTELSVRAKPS

| EC50 (read off the curve) [nM] | Binder |
| --- | --- |
| ~5 | B1 |
| ~5 | B2 |
| ~3 | B3 |
